The values below come from the Human Domainome abundance scans (Beltran et al. 2025).

± gives the uncertainty stated by the source.

B1: Neutrophil cytosol factor 2, residues 456 to 514; numbered along this chain, P19878 (parent)
chain: LKKGSQVEALFSYEATQPEDLEFQEGDIILVLSKVNEEWLEGECKGKVGIFPKVFVEDC

This data set covers variants of B1. Description: abundance fitness (aPCA) (normalised: wild type 0, dead -1); higher = more abundant; growth selection in yeast, the domain comes from the species named. As to conditions: Homo sapiens.
Turning to K34H, the abundance fitness was 0.059 ± 0.12.

Turning to K34L, the abundance fitness is -0.436 ± 0.14.

For K34S, the abundance fitness was -0.37 ± 0.1.

Turning to A15H, the abundance fitness is -0.954 ± 0.27.

In the case of A15F, the abundance fitness was -0.606 ± 0.17.

E22F: the abundance fitness is -0.55 ± 0.15.

Take E22Q: the abundance fitness turned out to be 0.395 ± 0.46.

For E22Y, the abundance fitness was -0.565 ± 0.14.

For the variant P52F, the abundance fitness is -0.459 ± 0.18.

Regarding D20I, the abundance fitness was -0.375 ± 0.13.

In the case of D20W, the abundance fitness is -0.7 ± 0.3.

With L32D, the abundance fitness was -0.054 ± 0.095.

As to Q6C, the abundance fitness was -0.337 ± 0.3.

Regarding Q6H, the abundance fitness came to 0.427 ± 0.25.

As for I28P, the abundance fitness came to 0.054 ± 0.18.

Consider I28H, for which the abundance fitness is 0.116 ± 0.099.

As for I28Q, the abundance fitness worked out at 0.146 ± 0.2.

Turning to I28T, the abundance fitness was found to be 0.163 ± 0.11.

On to L1F, for which the abundance fitness is 0.593 ± 0.23.

On to L1G, for which the abundance fitness is -0.053 ± 0.19.

With L1S, the abundance fitness is -0.217 ± 0.21.

Take E8K: the abundance fitness amounted to 1.17 ± 0.17.

Regarding K53G, the abundance fitness was determined as 0.02 ± 0.1.

Regarding K53M, the abundance fitness was -0.549 ± 0.39.

For K53C, the abundance fitness is -0.848 ± 0.25.

With N36S, the abundance fitness is -0.586 ± 0.11.

As to N36W, the abundance fitness is -0.712 ± 0.27.

Turning to N36L, the abundance fitness is -0.968 ± 0.2.

As for N36H, the abundance fitness was -0.276 ± 0.13.

As for N36V, the abundance fitness is -0.686 ± 0.18.

Turning to E25P, the abundance fitness is -0.89 ± 0.27.

Regarding E25K, the abundance fitness was 0.711 ± 0.13.

Q24I: the abundance fitness was -0.688 ± 0.17.

Turning to Q24F, the abundance fitness is -0.224 ± 0.12.

On to Q24Y, for which the abundance fitness is -0.44 ± 0.21.

In the case of Q24C, the abundance fitness is -0.197 ± 0.1.

For G26V, the abundance fitness was -0.407 ± 0.12.

In the case of G26E, the abundance fitness was -0.473 ± 0.36.

Turning to G26R, the abundance fitness was -0.464 ± 0.14.

Turning to W39H, the abundance fitness was -1.03 ± 0.24.

As for F51T, the abundance fitness is -0.165 ± 0.12.

On to F51R, for which the abundance fitness is -0.716 ± 0.17.

Regarding F51Y, the abundance fitness is -0.359 ± 0.11.

As for E57G, the abundance fitness is 0.005 ± 0.13.

For the variant E57L, the abundance fitness is -0.505 ± 0.13.

For the variant E57S, the abundance fitness turned out to be 0.271 ± 0.078.

As to E57H, the abundance fitness was -0.084 ± 0.13.

With K47Q, the abundance fitness was -0.856 ± 0.41.

As to K47P, the abundance fitness is -0.806 ± 0.27.

As for K45T, the abundance fitness was -0.562 ± 0.19.

Consider K45P, for which the abundance fitness is -0.904 ± 0.28.

On to K45Q, for which the abundance fitness was -0.577 ± 0.5.

With K45Y, the abundance fitness is -0.505 ± 0.16.

Consider E19M, for which the abundance fitness is -0.463 ± 0.22.

With E19F, the abundance fitness was -0.676 ± 0.14.

Take E19W: the abundance fitness was -0.166 ± 0.17.

Regarding E19K, the abundance fitness was -0.723 ± 0.4.

Consider P18S, for which the abundance fitness was -0.587 ± 0.11.

Take P18Q: the abundance fitness was -0.83 ± 0.45.

On to V56L, for which the abundance fitness was -0.589 ± 0.15.

As to V56Q, the abundance fitness is -0.581 ± 0.23.

As to I50E, the abundance fitness was -0.58 ± 0.32.

For I50Q, the abundance fitness was -0.659 ± 0.43.

On to I50R, for which the abundance fitness was -0.125 ± 0.11.

As for I50N, the abundance fitness is -0.821 ± 0.22.

For the variant I29G, the abundance fitness was -0.365 ± 0.1.

Take I29T: the abundance fitness was -0.497 ± 0.16.

With L30D, the abundance fitness turned out to be 0.169 ± 0.11.

In the case of L30E, the abundance fitness amounted to 0.042 ± 0.31.

On to V35S, for which the abundance fitness was -0.459 ± 0.1.

Take V35K: the abundance fitness is -0.045 ± 0.23.

On to V31F, for which the abundance fitness was -0.354 ± 0.13.

As to V31P, the abundance fitness was -0.046 ± 0.14.

For V31L, the abundance fitness is 0.041 ± 0.11.

Consider K2H, for which the abundance fitness stood at 0.249 ± 0.3.

With K2E, the abundance fitness was -0.415 ± 0.32.

Consider K2M, for which the abundance fitness is -0.593 ± 0.29.

E37S: the abundance fitness was -0.527 ± 0.12.

On to E37H, for which the abundance fitness is -0.328 ± 0.14.

Consider E37T, for which the abundance fitness was -0.171 ± 0.14.

With E37Y, the abundance fitness was -0.345 ± 0.34.

With F23K, the abundance fitness is -0.048 ± 0.32.

As to F23G, the abundance fitness was -0.198 ± 0.13.

Regarding F23M, the abundance fitness was -0.098 ± 0.21.

F23D: the abundance fitness was -0.527 ± 0.14.

Take F23V: the abundance fitness is -0.568 ± 0.16.

For the variant F23S, the abundance fitness is -0.655 ± 0.13.

Consider V54D, for which the abundance fitness stood at 0.049 ± 0.12.

Consider V54A, for which the abundance fitness came to 0.431 ± 0.11.

With D27P, the abundance fitness was -0.783 ± 0.33.

Take D27V: the abundance fitness was -0.969 ± 0.24.

On to L21V, for which the abundance fitness was -0.225 ± 0.11.

For E43Q, the abundance fitness was -0.078 ± 0.23.

As to E43C, the abundance fitness is -0.685 ± 0.17.

Take E43M: the abundance fitness was -0.009 ± 0.17.

Consider E43N, for which the abundance fitness was -0.758 ± 0.22.

E43P: the abundance fitness is -0.818 ± 0.26.

In the case of S33N, the abundance fitness amounted to 0.147 ± 0.089.

For the variant S33H, the abundance fitness is -0.596 ± 0.18.

As to S33I, the abundance fitness is -0.34 ± 0.15.

Consider E38I, for which the abundance fitness is -0.097 ± 0.12.

On to E38K, for which the abundance fitness is -0.649 ± 0.31.

Consider E38V, for which the abundance fitness is -0.479 ± 0.11.

Consider E38Y, for which the abundance fitness was -0.266 ± 0.11.

C44L: the abundance fitness is -0.35 ± 0.1.

With C44V, the abundance fitness is -0.455 ± 0.094.

Regarding E41A, the abundance fitness is -0.394 ± 0.14.

With E41C, the abundance fitness was 0.14 ± 0.095.

Regarding E41T, the abundance fitness is -0.527 ± 0.17.

In the case of A9W, the abundance fitness was -0.432 ± 0.29.

On to A9G, for which the abundance fitness was -0.439 ± 0.2.

Consider D58M, for which the abundance fitness was -0.203 ± 0.29.

For D58F, the abundance fitness is -0.718 ± 0.21.

For the variant D58S, the abundance fitness was 0.022 ± 0.1.

As to S5V, the abundance fitness was -0.056 ± 0.13.

For the variant S5D, the abundance fitness is 0.797 ± 0.15.

Turning to S5E, the abundance fitness is 0.099 ± 0.37.

Turning to F11K, the abundance fitness turned out to be 0.153 ± 0.2.

On to F11S, for which the abundance fitness is -0.333 ± 0.21.

In the case of F11L, the abundance fitness is -0.314 ± 0.15.

F11Y: the abundance fitness is -0.191 ± 0.24.

For Y13S, the abundance fitness was -0.487 ± 0.11.

Turning to Y13N, the abundance fitness is -0.472 ± 0.11.

On to Y13R, for which the abundance fitness worked out at 0.458 ± 0.085.

Y13H: the abundance fitness is -0.104 ± 0.12.

Regarding L10K, the abundance fitness was -0.611 ± 0.31.

As to L10P, the abundance fitness is -0.539 ± 0.27.

For L10W, the abundance fitness is -0.92 ± 0.35.

Regarding L10S, the abundance fitness is -0.789 ± 0.29.

In the case of E14Q, the abundance fitness stood at 0.068 ± 0.33.

As to E14A, the abundance fitness is 0.059 ± 0.12.

In the case of E14R, the abundance fitness came out at 0.096 ± 0.084.

Regarding E14F, the abundance fitness is -0.236 ± 0.11.

V48C: the abundance fitness was -0.392 ± 0.16.

Take V48W: the abundance fitness is -0.901 ± 0.49.

Take V48T: the abundance fitness is -0.031 ± 0.12.

Regarding V48I, the abundance fitness is -0.138 ± 0.1.

Consider G46R, for which the abundance fitness is -0.392 ± 0.23.

Take G46L: the abundance fitness was -0.226 ± 0.12.

For L40F, the abundance fitness was -0.548 ± 0.14.

Consider L40V, for which the abundance fitness was -0.451 ± 0.12.

Regarding G42D, the abundance fitness is -0.803 ± 0.17.

Regarding G42T, the abundance fitness was -0.876 ± 0.24.

On to G42Q, for which the abundance fitness was -0.637 ± 0.28.

Take G49R: the abundance fitness was -0.758 ± 0.2.

As to G49M, the abundance fitness is -0.075 ± 0.22.

Take G49V: the abundance fitness was -1.05 ± 0.18.

G49D: the abundance fitness is -0.478 ± 0.13.

With G49A, the abundance fitness is -0.59 ± 0.18.

Consider G49N, for which the abundance fitness is -0.735 ± 0.15.

Take V7S: the abundance fitness was -0.287 ± 0.17.

On to T16S, for which the abundance fitness was -0.153 ± 0.097.

Regarding T16N, the abundance fitness is -0.304 ± 0.14.

As to T16G, the abundance fitness is -0.192 ± 0.089.

In the case of T16R, the abundance fitness was -0.457 ± 0.14.

For the variant T16A, the abundance fitness is -0.475 ± 0.16.

In the case of T16E, the abundance fitness was -0.368 ± 0.35.

C59L: the abundance fitness is -0.112 ± 0.21.

Turning to C59F, the abundance fitness was -0.044 ± 0.14.

Turning to C59A, the abundance fitness turned out to be 0.057 ± 0.21.

Turning to F55D, the abundance fitness was -0.409 ± 0.18.

In the case of K3C, the abundance fitness amounted to 0.761 ± 0.34.

As to K3P, the abundance fitness came to 0.347 ± 0.13.

As for K3A, the abundance fitness is -0.483 ± 0.23.

Turning to G4F, the abundance fitness was -0.312 ± 0.49.

As to G4D, the abundance fitness is -0.031 ± 0.22.

G4Y: the abundance fitness is -0.89 ± 0.45.
